Among the data in article PMC8910618, “Cognate DNA Recognition by Engrailed Homeodomain Involves A Conformational Change Controlled via An Electrostatic-Spring-Loaded Latch” are Kd values, retold here.

By Kd is commonly meant the constant that tells how readily two partners part at equilibrium.

Holding throughout (conditions): protein: recombinant; tags: none (untagged, or SUMO/His tag cleaved by ULP1); 15N or 13C,15N labelled for NMR; 5' overhang 1 nt on each strand, 20 bp
Data set [1] deals with T1, engrailed homeodomain (enHD) (UniProt P02836 456-509).
T1 sequence: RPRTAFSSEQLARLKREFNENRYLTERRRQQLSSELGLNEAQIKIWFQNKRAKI
Briefly: NMR titration (1H-15N HSQC, A460 and A507); 300 mM NaCl, 20 mM acetate pH 4, 298 K; NMR: 200 uM enHD, 298 K, 5% D2O; 20 mM MES pH 6 + 25 mM NaCl; 20 mM acetate pH 4 + 300 or 700 mM NaCl; 25 mM phosphate pH 6.8 + 50 mM NaCl. CD: 15 uM enHD and DNA, 20 mM MES pH 6, 25 mM NaCl, room temperature.

Data set [2] concerns the target T1, engrailed homeodomain (enHD). The data set is described as follows: NMR titration (1H-15N HSQC, W501 and A460); 50 mM NaCl, 25 mM phosphate pH 6.8, 298 K; stated as sub-uM, too tight to evaluate Kd; NMR: 200 uM enHD, 298 K, 5% D2O; 20 mM MES pH 6 + 25 mM NaCl; 20 mM acetate pH 4 + 300 or 700 mM NaCl; 25 mM phosphate pH 6.8 + 50 mM NaCl. CD: 15 uM enHD and DNA, 20 mM MES pH 6, 25 mM NaCl, room temperature.

For data set [3] the target is unchanged. The data set is described as follows: NMR titration (1H-15N HSQC, R456 side-chain NH); 700 mM NaCl, 20 mM acetate pH 4, 298 K; NMR: 200 uM enHD, 298 K, 5% D2O; 20 mM MES pH 6 + 25 mM NaCl; 20 mM acetate pH 4 + 300 or 700 mM NaCl; 25 mM phosphate pH 6.8 + 50 mM NaCl. CD: 15 uM enHD and DNA, 20 mM MES pH 6, 25 mM NaCl, room temperature.

B1: cognate DNA (same as X-ray structure) (dsDNA)
DNA 1: TTTTGCCATGTAATTACCTAA
DNA 2: ATTAGGTAATTACATGGCAAA
On to B1, for which the Kd in data set [1] is 95 ± 20 µM; in data set [2], below 1000 nM; in data set [3], 170 ± 2 µM.
